Substrate: NC(=O)CC[C@H](N)C(=O)O
Test: cells, lysate or membranes
Format: cell-based, Arabidopsis thaliana

B1: CAT8 (Arabidopsis thaliana) (protein)
chain: MIPASMEEAHQLESRSDDLSQRRSYWRWRKQDFFPEFSFQSFSTYKSALSATCPRLADRLLSRSSDAYELDAARRESENPMRRCLTWWDLLWLSFGSVVGSGVFVITGQEARVGAGPAVVLSYAISGVSALLSVLCYAEFGVEIPVAGGSFSYLRVELGDFIAFIAAGNILLEAMVGAAGLGRSWSSYLASLVKNDSDYFRIKVDSFAKGFDLLDPVAVAVLLVANGIAMTGTKRTSWLNLITSMVTVCIIVFIVVVGFTHSKTSNLVPFFPYGAKGVVQSAAVVYWSYTGFDMVANMAEETEKPSRDIPIGLVGSMSMITVVYCLMALALTMMVKYTEIDANAAYSVAFAQIGMKWAKYLVGICALKGMTTSLLVGSLGQARYTTQIARSHMIPPWFALVHPKTGTPIYATLLVTILSSIISFFTSLEVLSSVFSFATLFIFMLVAVALLVRRYYVKDVTPEAGLLKFLGFLFLIIASSIGVSALWNSGVKGWIAYTVTGVIWFIGTLGLALLPKYRVPKVWGVPLVPWLPSFSIAMNLFLIGSLGYVAFLRFIICTMVMLLYYLFVGLHATYDVAHQPLEEAKFEGER
notes: CAT8 (At1g17120) expressed in Xenopus oocytes and in yeast 22Δ8AA
Km: 100 µM

From paper PMC2811748, “H^+-Independent Glutamine Transport in Plant Root Tips” (PLoS ONE, 2010)
